Measured values: US20140073575

Experiments:
[1] = biological target: T1, His10-tagged human collagen III construct, P02461
T1 chain: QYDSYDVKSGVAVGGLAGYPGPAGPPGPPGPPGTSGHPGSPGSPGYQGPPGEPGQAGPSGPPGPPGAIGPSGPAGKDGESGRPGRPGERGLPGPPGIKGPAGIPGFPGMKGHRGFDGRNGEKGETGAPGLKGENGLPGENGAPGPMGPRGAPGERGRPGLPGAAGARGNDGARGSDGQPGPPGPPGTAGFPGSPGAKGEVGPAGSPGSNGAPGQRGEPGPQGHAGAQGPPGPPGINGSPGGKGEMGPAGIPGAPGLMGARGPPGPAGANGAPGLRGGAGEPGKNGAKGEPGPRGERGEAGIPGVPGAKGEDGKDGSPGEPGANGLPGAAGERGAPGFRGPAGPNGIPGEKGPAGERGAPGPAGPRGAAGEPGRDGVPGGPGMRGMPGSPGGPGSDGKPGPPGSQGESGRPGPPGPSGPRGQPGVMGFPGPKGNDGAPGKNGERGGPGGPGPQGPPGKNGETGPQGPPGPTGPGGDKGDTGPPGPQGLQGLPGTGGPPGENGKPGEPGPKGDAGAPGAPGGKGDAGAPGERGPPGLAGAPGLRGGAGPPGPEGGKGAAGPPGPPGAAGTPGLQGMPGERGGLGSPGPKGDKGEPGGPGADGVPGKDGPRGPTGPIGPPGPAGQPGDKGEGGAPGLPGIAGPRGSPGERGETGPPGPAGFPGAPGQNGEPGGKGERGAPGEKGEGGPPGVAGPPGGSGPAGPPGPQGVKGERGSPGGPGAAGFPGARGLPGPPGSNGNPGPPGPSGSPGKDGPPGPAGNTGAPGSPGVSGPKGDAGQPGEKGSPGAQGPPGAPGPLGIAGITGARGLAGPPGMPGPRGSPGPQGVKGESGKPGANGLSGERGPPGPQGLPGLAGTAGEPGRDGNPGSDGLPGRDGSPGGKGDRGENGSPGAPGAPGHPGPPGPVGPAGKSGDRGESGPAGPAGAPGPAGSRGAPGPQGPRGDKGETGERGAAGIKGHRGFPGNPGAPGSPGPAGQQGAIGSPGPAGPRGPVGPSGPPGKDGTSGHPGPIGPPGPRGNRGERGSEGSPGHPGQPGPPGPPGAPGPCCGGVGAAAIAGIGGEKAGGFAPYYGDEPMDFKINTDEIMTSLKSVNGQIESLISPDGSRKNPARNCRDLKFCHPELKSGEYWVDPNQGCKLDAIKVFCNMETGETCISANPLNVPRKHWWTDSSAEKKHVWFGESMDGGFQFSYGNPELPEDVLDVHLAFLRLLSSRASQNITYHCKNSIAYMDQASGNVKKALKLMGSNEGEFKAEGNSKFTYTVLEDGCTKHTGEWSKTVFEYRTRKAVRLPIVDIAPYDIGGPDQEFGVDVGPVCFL

(GDK)4 acceptor peptide = biological target: T2, (GDK)4 acceptor peptide
T2 chain: GDKGDKGDKGDK

[2] = biological target: T3, MimiD peptide GTKGETGLKGII
T3 chain: GTKGETGLKGII

B1: Mimivirus prolyl hydroxylase L593_long (protein)
chain: MKTVTIITIIVVIIVVILIIMVLSKSCVSHFRNVGSLNSRDVNLKDDFSYANIDDPYNKPFVLNNLINPTKCQEIMQFANGKLFDSQVLSGTDKNIRNSQQMWISKNNPMVKPIFENICRQFNVPFDNAEDLQVVRYLPNQYYNEHHDSCCDSSKQCSEFIERGGQRILTVLIYLNNEFSDGHTYFPNLNQKFKPKTGDALVFYPLANNSNKCHPYSLHAGMPVTSGEKWIANLWFRERKFS
Q: With B1 as the protein, how does the “prolyl hydroxylase activity ([14C]-CO2 production from [14C]-2-oxoglutarate)” value ((GPP)7 acceptor peptide) read?
A: Its value is “Both short and long forms of L593 are active as prolyl hydroxylases, but the short form has a higher specific activity than the long form”.

B2: Mimivirus prolyl hydroxylase L593_short (protein)
chain: MVLSKSCVSHFRNVGSLNSRDVNLKDDFSYANIDDPYNKPFVLNNLINPTKCQEIMQFANGKLFDSQVLSGTDKNIRNSQQMWISKNNPMVKPIFENICRQFNVPFDNAEDLQVVRYLPNQYYNEHHDSCCDSSKQCSEFIERGGQRILTVLIYLNNEFSDGHTYFPNLNQKFKPKTGDALVFYPLANNSNKCHPYSLHAGMPVTSGEKWIANLWFRERKFS
Q: How did the “prolyl hydroxylase activity ([14C]-CO2 production from [14C]-2-oxoglutarate)” value ((GPP)7 acceptor peptide) turn out when B2 was run?
A: Its value is “the short form of L593 yielded prolyl hydroxylase activity in the range of 600 pmol/min/mg protein”.

Q: And the “hydroxyproline in collagen III after co-expression in E. coli (amino acid analysis by HPLC, tandem mass spectrometry of tryptic peptides)” value [1]?
A: Its value is “the amino acid hydroxyproline was clearly detected in the human collagen III extract when the Mimivirus L593 protein was co-expressed”.

B3: Mimivirus lysyl hydroxylase L230 (protein)
chain: MISRTYVINLARRPDKKDRILAEFLKLKEKGVELNCVIFEAVDGNNPEHLSRFNFKIPNWTDLNSGKPMTNGEVGCALSHWSVWKDVVDCVENGTLDKDCRILVLEDDVVFLDNFMERYQTYTSEITYNCDLLYLHRKPLNPYTETKISTHIVKPNKSYWACAYVITYQCAKKFMNANYLENLIPSDEFIPIMHGCNVYGFEKLFSNCEKIDCYAVQPSLVKLTSNAFNDSETFHSGSYVPSNKFNFDTDKQFRIVYIGPTKGNSFHRFTEYCKLYLLPYKVIDEKETNDFVSLRSELQSLSEQDLNTTLMLVVSVNHNDFCNTIPCAPTNEFIDKYKQLTTDTNSIVSAVQNGTNKTMFIGWANKISEFINHYHQKLTESNAETDINLANLLLISSISSDFNCVVEDVEGNLFQLINEESDIVFSTTTSRVNNKLGKTPSVLYANSDSSVIVLNKVENYTGYGWNEYYGYHVYPVKFDVLPKIYLSIRIVKNANVTKIAETLDYPKELITVSISRSEHDSFYQADIQKFLLSGADYYFYISGDCIITRPTILKELLELNKDFVGPLMRKGTESWTNYWGDIDPSNGYYKRSFDYFDIIGRDRVGCWNVPYLASVYLIKKSVIEQVPNLFTENSHMWNGSNIDMRLCHNLRKNNVFMYLSNLRPYGHIDDSINLEVLSGVPTEVTLYDLPTRKEEWEKKYLHPEFLSHLQNFKDFDYTEICNDVYSFPLFTPAFCKEVIEVMDKANLWSKGGDSYFDPRIGGVESYPTQDTQLYEVGLDKQWHYVVFNYVAPFVRHLYNNYKTKDINLAFVVKYDMERQSELAPHHDSSTYTLNIALNEYGKEYTAGGCEFIRHKFIWQGQKVGYATIHAGKLLAYHRALPITSGKRYILVSFVN
Q: With B3 as the protein, how does the lysyl hydroxylase activity ((GDK)4 acceptor peptide) read?
A: Its lysyl hydroxylase activity is “The lysyl hydroxylase activity was highest towards the (GDK)4 peptide and the GTKGETGLKGII peptide derived from a Mimivirus collagen sequence”.

Q: And the “hydroxylysine in collagen III after co-expression in E. coli (amino acid analysis by HPLC)” value [1]?
A: Its value is “A peak corresponding to hydroxylysine was detected in collagen III co-expressed with L230 but not in collagen expressed alone in E. coli”.

Q: What about the lysyl hydroxylase activity [2] of the same protein?
A: Its lysyl hydroxylase activity is “The lysyl hydroxylase activity was highest towards the (GDK)4 peptide and the GTKGETGLKGII peptide derived from a Mimivirus collagen sequence”.
